From PMC10992476, “Efficient production of salvianic acid A from L-dihydroxyphenylalanine through a tri-enzyme cascade” (Bioresources and Bioprocessing, 2023)
Positions count from the first letter of the chain named. In names and notes the source's numbering stands.

B1: LaPPR (Lactobacillus sp. CGMCC 9967) (protein)
chain: MMKILNSFSLKPEQRQTLEAAGHTVIDADKLDDATAQQIDVVYGWNAAATRVNFDRLQFVQAMSAGVDYLPLAELAKHHVLLANTSGIHAEPIAEYVLGALFTISRGILPAIRADRDMWTLRQERPPMTLLKGKTAVIFGTGHIGSTIATKLQALGLHTIGVSAHGRPAAGFDQVMTDVATHEAAGRADVVINALPLTPDTKHFYDEAFFAAASKQPLFINIGRGPSVDMAALTQALKNKQISAAALDVVDPEPLPQDSPLWGMTNVLLTPHISGTVPQLRDKVFKIFNDNLKTLISSGQLASHQVDLTRGY
notes: homodimer
B2: LaPPR (Lactobacillus sp. CGMCC 9967; H89M) (protein)
chain: B1 chain with H89M
notes: homodimer
B3: LaPPR (Lactobacillus sp. CGMCC 9967; H143D) (protein)
chain: B1 chain with H143D
notes: homodimer
B4: LaPPR (Lactobacillus sp. CGMCC 9967; H143D/H89M) (protein)
chain: B1 chain with H89M, H143D
notes: homodimer
B5: LaPPR (Lactobacillus sp. CGMCC 9967; H143D/H89M/P256C) (protein)
chain: B1 chain with H89M, H143D, P256C
notes: homodimer

target: phenylpyruvate reductase from Lactobacillus sp. CGMCC 9967 (LaPPR) (Lactobacillus sp. CGMCC 9967); assay: crystal structure; apo-LaPPR wild type, sitting drop vapor diffusion, 20 °C, protein 28 mg/mL, 0.1 M citric acid pH 3.5, 14% w/v PEG 1000, 0.01 M beta-nicotinamide adenine dinucleotide; molecular replacement with PDB 3EVT; conditions: not given

Row | Molecule | stoichiometry N
1 | phenylpyruvate reductase from Lactobacillus sp. CGMCC 9967 (LaPPR) (enzyme) | 2

substrate: O=C(O)C(=O)Cc1ccc(O)c(O)c1; assay: purified protein; assay type: biochemical, Lactobacillus sp. CGMCC 9967; conditions: 2 mM NADH, Tris-HCl 50 mM pH 7.0, 30 °C

Row | Molecule | Km | kcat | kcat/Km
2 | B1 | 6.20 ± 0.15 mM | 1.21 ± 0.03 s⁻¹ | 200 M⁻¹ s⁻¹
3 | B2 | 5.74 ± 0.08 mM | 1.37 ± 0.06 s⁻¹ | 240 M⁻¹ s⁻¹
4 | B3 | 5.03 ± 0.14 mM | 2.08 ± 0.11 s⁻¹ | 410 M⁻¹ s⁻¹
5 | B4 | 3.63 ± 0.17 mM | 2.35 ± 0.12 s⁻¹ | 650 M⁻¹ s⁻¹
6 | B5 | 2.52 ± 0.27 mM | 5.74 ± 0.24 s⁻¹ | 2050 M⁻¹ s⁻¹
